Source: US20180208664A1 (APOGENIX, published 2018)

B1: APG101 (Fc fusion, UniProt P25445 26-173, looked up, not shown: a dimerising Fc or GST)
chain: QVTDINSKGLELRKTVTTVETQNLEGLHHDGQFCHKPCPPGERKARDCTVNGDEPDCVPCQEGKEYTDKAHFSSKCRRCRLCDEGHGLEVEINCTRTQNTKCRCKPNFFCNSTVCEHCDPCTKCEHGIIKECTLTSNTKCKEEGSRSN
B2: scFv-minibody SEQ ID 37 (scFv)
scFv: QSLEESGGDLVKPGASLTLTCTASGFSFSSGYDMCWVRQAPGKGLEWIACIDTDNDATYYASWAKGRFTISKPSSTTVLLQITSLTAADTATYFCATTHGDYVAFKLWGPGTLVTVSGGGSGGGSGGGSGGGSQVLTQTASSVSAAVGGTVTINCQSSQSVYKNNDLSWYQQKPRQPPKLLIYQASKLASGVPSRFKGSGSGTQFTLTIGDLESDDGATYYCAGGYTASIYAFGGGTEVVGSGSSGQPREPQVYTLPPSREEMTKNQVSLTCLVKGFYPSDIAVEWESQGSPENNYKTTPPVLDSDGSFFLYSKLTVDKSRWQQGNVFSCSVMHEALHNHYTQKSLSLSPGSSSSSSAWSHPQFEK
B3: scFv-minibody SEQ ID 38 (scFv)
scFv: EVQLVESGGGLVQPGGSLRLSCAASGFSFSSGYDMCWVRQAPGKGLEWVACIDTDNDATYYASWAKGRFTISKDSSKNTLYLQMNSLRAEDTAVYYCARTHGDYVAFKLWGQGTLVTVSGGGSGGGSGGGSGGGSDIQMTQSPSSLSASVGDRVTITCQSSQSVYKNNDLSWYQQKPGKAPKLLIYQASKLASGVPSRFSGSGSGTDFTLTISSLQPEDFATYYCAGGYTASIYAFGQGTKVEIKGSGSSGQPREPQVYTLPPSREEMTKNQVSLTCLVKGFYPSDIAVEWESQGSPENNYKTTPPVLDSDGSFFLYSKLTVDKSRWQQGNVFSCSVMHEALHNHYTQKSLSLSPGSSSSSSAWSHPQFEK
B4: scFv-minibody SEQ ID 39 (scFv)
scFv: EVQLVESGGGLVQPGGSLRLSCAASGFSFSSGYDMCWVRQAPGKGLEWVACIDTDNDATYYADSVKGRFTISKDSSKNTLYLQMNSLRAEDTAVYYCARTHGDYVAFKLWGQGTLVTVSGGGSGGGSGGGSGGGSDIQMTQSPSSLSASVGDRVTITCQSSQSVYKNNDLSWYQQKPGKAPKLLIYQASKLASGVPSRFSGSGSGTDFTLTISSLQPEDFATYYCAGGYTASIYAFGQGTKVEIKGSGSSGQPREPQVYTLPPSREEMTKNQVSLTCLVKGFYPSDIAVEWESQGSPENNYKTTPPVLDSDGSFFLYSKLTVDKSRWQQGNVFSCSVMHEALHNHYTQKSLSLSPGSSSSSSAWSHPQFEK
B5: scFv-minibody SEQ ID 40 (scFv)
scFv: EVQLVESGGGLVQPGGSLRLSCAASGFSFSSGYDMSWVRQAPGKGLEWVSAIDTDNDATYYADSVKGRFTISKDSSKNTLYLQMNSLRAEDTAVYYCARTHGDYVAFKLWGQGTLVTVSGGGSGGGSGGGSGGGSDIQMTQSPSSLSASVGDRVTITCQSSQSVYKNNDLSWYQQKPGKAPKLLIYQASKLASGVPSRFSGSGSGTDFTLTISSLQPEDFATYYCAGGYTASIYAFGQGTKVEIKGSGSSGQPREPQVYTLPPSREEMTKNQVSLTCLVKGFYPSDIAVEWESQGSPENNYKTTPPVLDSDGSFFLYSKLTVDKSRWQQGNVFSCSVMHEALHNHYTQKSLSLSPGSSSSSSAWSHPQFEK
B6: scFv-minibody SEQ ID 48 (scFv)
scFv: QSLEESGGDLVKPGGTLTLTCTTSGFSFSDHYWMCWVRQAPGKGLEWIACIYTADSDSYYASWAKGRFTISKTSSTTVTLQMTSLTAADTATYFCARNGAYAGGPYGDLWGPGTLVTVSGGGSGGGSGGGSGGGSDIVMTQTPSSVEAAVGGTVTIKCQASQSIRTSLVWYQQKPGQPPKLLIYKASDLPSGVPSRFKGSGSGTQFTLTISDLESADAATYYCQSYDFRDTINNGHSFGGGTEVVVKGSGSSGQPREPQVYTLPPSREEMTKNQVSLTCLVKGFYPSDIAVEWESQGSPENNYKTTPPVLDSDGSFFLYSKLTVDKSRWQQGNVFSCSVMHEALHNHYTQKSLSLSPGSSSSSSAWSHPQFEK
B7: scFv-minibody SEQ ID 49 (scFv)
scFv: EVQLVESGGGLVQPGGSLRLSCAASGFSFSDHYWMCWVRQAPGKGLEWVACIYTADSDSYYASWAKGRFTISKDSSKNTLYLQMNSLRAEDTAVYYCARNGAYAGGPYGDLWGQGTLVTVSGGGSGGGSGGGSGGGSDIQMTQSPSSLSASVGDRVTITCKASQSIRTSLVWYQQKPGKAPKLLIYKASDLPSGVPSRFSGSGSGTDFTLTISSLQPEDFATYYCQSYDFRDTINNGHSFGQGTKVEIKGSGSSGQPREPQVYTLPPSREEMTKNQVSLTCLVKGFYPSDIAVEWESQGSPENNYKTTPPVLDSDGSFFLYSKLTVDKSRWQQGNVFSCSVMHEALHNHYTQKSLSLSPGSSSSSSAWSHPQFEK
B8: scFv-minibody SEQ ID 50 (scFv)
scFv: EVQLVESGGGLVQPGGSLRLSCAASGFSFSDHYWMCWVRQAPGKGLEWVACIYTADSDSYYADSVKGRFTISKDSSKNTLYLQMNSLRAEDTAVYYCARNGAYAGGPYGDLWGQGTLVTVSGGGSGGGSGGGSGGGSDIQMTQSPSSLSASVGDRVTITCKASQSIRTSLVWYQQKPGKAPKLLIYKASDLPSGVPSRFSGSGSGTDFTLTISSLQPEDFATYYCQSYDFRDTINNGHSFGQGTKVEIKGSGSSGQPREPQVYTLPPSREEMTKNQVSLTCLVKGFYPSDIAVEWESQGSPENNYKTTPPVLDSDGSFFLYSKLTVDKSRWQQGNVFSCSVMHEALHNHYTQKSLSLSPGSSSSSSAWSHPQFEK
B9: scFv-minibody SEQ ID 51 (scFv)
scFv: EVQLVESGGGLVQPGGSLRLSCAASGFSFSDHYWMSWVRQAPGKGLEWVSAIYTADSDSYYADSVKGRFTISKDSSKNTLYLQMNSLRAEDTAVYYCARNGAYAGGPYGDLWGQGTLVTVSGGGSGGGSGGGSGGGSDIQMTQSPSSLSASVGDRVTITCKASQSIRTSLVWYQQKPGKAPKLLIYKASDLPSGVPSRFSGSGSGTDFTLTISSLQPEDFATYYCQSYDFRDTINNGHSFGQGTKVEIKGSGSSGQPREPQVYTLPPSREEMTKNQVSLTCLVKGFYPSDIAVEWESQGSPENNYKTTPPVLDSDGSFFLYSKLTVDKSRWQQGNVFSCSVMHEALHNHYTQKSLSLSPGSSSSSSAWSHPQFEK

Target: T1, APG293 (human CD95L-T4) (human)
T1 chain: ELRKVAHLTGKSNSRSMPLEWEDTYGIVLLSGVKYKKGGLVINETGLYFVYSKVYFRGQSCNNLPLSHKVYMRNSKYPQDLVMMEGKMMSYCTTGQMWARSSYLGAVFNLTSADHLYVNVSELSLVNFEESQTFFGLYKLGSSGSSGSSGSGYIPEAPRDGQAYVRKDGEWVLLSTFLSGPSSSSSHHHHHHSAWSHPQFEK
Assay: cell-based or functional assay

In order of falling “EC50, Assay 1: antagonism of CD95L-T4-induced apoptosis on Jurkat A3 cells” value:
1. B1  0.774 µg/mL
2. B5  0.532 µg/mL
3. B2  0.124 µg/mL
4. B3  0.118 µg/mL
5. B4  0.0994 µg/mL

In order of rising “EC50, Assay 2: antagonism of CD95L-T4-induced apoptosis on Jurkat A3 cells” value:
1. B4  0.105 µg/mL
2. B3  0.114 µg/mL
3. B2  0.117 µg/mL
4. B5  0.591 µg/mL
5. B1  0.789 µg/mL

In order of rising “EC50, Assay 3: antagonism of CD95L-T4-induced apoptosis on Jurkat A3 cells” value:
1. B6  0.116 µg/mL
2. B8  0.169 µg/mL
3. B7  0.172 µg/mL
4. B1  0.707 µg/mL
5. B9  1.55 µg/mL

In order of rising “EC50, Assay 4: antagonism of CD95L-T4-induced apoptosis on Jurkat A3 cells” value:
1. B6  0.0908 µg/mL
2. B8  0.136 µg/mL
3. B7  0.144 µg/mL
4. B1  0.714 µg/mL
5. B9  2.26 µg/mL

In order of rising “EC50, Mean: antagonism of CD95L-T4-induced apoptosis on Jurkat A3 cells” value:
1. B4  0.093 µg/mL
2. B6  0.097 µg/mL
3. B3  0.11 µg/mL
4. B2  0.118 µg/mL
5. B7  0.14 µg/mL
6. B8  0.143 µg/mL
7. B5  0.599 µg/mL
8. B1  0.746 µg/mL
9. B9  1.76 µg/mL

In order of falling “EC50, Assay 5: antagonism of CD95L-T4-induced apoptosis on Jurkat A3 cells” value:
1. B9  1.48 µg/mL
2. B5  0.701 µg/mL
3. B8  0.128 µg/mL
4. B7  0.117 µg/mL
5. B2  0.113 µg/mL
6. B3  0.0957 µg/mL
7. B4  0.0865 µg/mL
8. B6  0.0844 µg/mL

In order of rising “EC50, Assay 6: antagonism of CD95L-T4-induced apoptosis on Jurkat A3 cells” value:
1. B4  0.0834 µg/mL
2. B6  0.0975 µg/mL
3. B3  0.111 µg/mL
4. B2  0.118 µg/mL
5. B7  0.127 µg/mL
6. B8  0.14 µg/mL
7. B5  0.571 µg/mL
8. B9  1.74 µg/mL
